{"source": "patent US20140348819A1", "about": "“Methods of Treating Cancer” (Dana-Farber Cancer Institute, Inc., priority 2011, published 2014)", "molecules": {"B1": {"name": "GDNF (protein, UniProt P39905 78-211, looked up)", "Glial cell line-derived …": "SPDKQMAVLPRRERNRQAAAANPENSRGKGRRGQRGKNRGCVLTAIHLNVTDLGLGYETKEELIFRYCSGSCDAAETTYDKILKNLSRNRRLVSDKVGQACCRPIAFDDDLSFLDDNLVYHILRKHSAKRCGCI"}}, "tested_on": "six V600E BRAF melanoma cell lines", "test": "Screening of recombinant RTK ligands for ability to confer resistance to BRAFi (PLX4720) or MEKi (PD184352) (Table 4)", "format": "cell-based, human", "design": "ability of recombinant RTK ligand to confer resistance / ability of recombinant RTK ligand to confer resistance (screening value): scale not given here", "in_short": "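Six V600E BRAF melanoma lines treated with PLX4720 or PD184352 after addition of 22 recombinant RTK ligands, scored for drug resistance. Activation of selected RTKs confirmed by western blotting and high-throughput tyrosine kinase phosphorylation profiling.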", "data": [{"molecule": "B1", "values": [{"measurement": "ability of recombinant RTK ligand to confer resistance", "setting": "A2058, PD184352 - 1 uM, ligand 0.4 ng/ml", "value": 0.98}, {"measurement": "ability of recombinant RTK ligand to confer resistance", "setting": "A2058, PD184352 - 1 uM, ligand 1.6 ng/ml", "value": 1.03}, {"measurement": "ability of recombinant RTK ligand to confer resistance", "setting": "A2058, PD184352 - 1 uM, ligand 6.25 ng/ml", "value": 1.00}, {"measurement": "ability of recombinant RTK ligand to confer resistance", "setting": "A2058, PD184352 - 1 uM, ligand 25 ng/ml", "value": 0.93}, {"measurement": "ability of recombinant RTK ligand to confer resistance", "setting": "A2058, PD184352 - 1 uM, ligand 100 ng/ml", "value": 0.92}, {"measurement": "ability of recombinant RTK ligand to confer resistance", "setting": "A2058, PLX4720 - 2 uM, ligand 0.4 ng/ml", "value": 0.97}, {"measurement": "ability of recombinant RTK ligand to confer resistance", "setting": "A2058, PLX4720 - 2 uM, ligand 1.6 ng/ml", "value": 0.97}, {"measurement": "ability of recombinant RTK ligand to confer resistance", "setting": "A2058, PLX4720 - 2 uM, ligand 6.25 ng/ml", "value": 0.98}, {"measurement": "ability of recombinant RTK ligand to confer resistance", "setting": "A2058, PLX4720 - 2 uM, ligand 25 ng/ml", "value": 0.94}, {"measurement": "ability of recombinant RTK ligand to confer resistance", "setting": "A2058, PLX4720 - 2 uM, ligand 100 ng/ml", "value": 0.97}, {"measurement": "ability of recombinant RTK ligand to confer resistance", "setting": "C32, PD184352 - 1 uM, ligand 0.4 ng/ml", "value": 1.08}, {"measurement": "ability of recombinant RTK ligand to confer resistance", "setting": "C32, PD184352 - 1 uM, ligand 1.6 ng/ml", "value": 1.13}, {"measurement": "ability of recombinant RTK ligand to confer resistance", "setting": "C32, PD184352 - 1 uM, ligand 6.25 ng/ml", "value": 1.03}, {"measurement": "ability of recombinant RTK ligand to confer resistance", "setting": "C32, PD184352 - 1 uM, ligand 25 ng/ml", "value": 0.96}, {"measurement": "ability of recombinant RTK ligand to confer resistance", "setting": "C32, PD184352 - 1 uM, ligand 100 ng/ml", "value": 0.94}, {"measurement": "ability of recombinant RTK ligand to confer resistance", "setting": "C32, PLX4720 - 2 uM, ligand 0.4 ng/ml", "value": 1.04}, {"measurement": "ability of recombinant RTK ligand to confer resistance", "setting": "C32, PLX4720 - 2 uM, ligand 1.6 ng/ml", "value": 1.11}, {"measurement": "ability of recombinant RTK ligand to confer resistance", "setting": "C32, PLX4720 - 2 uM, ligand 6.25 ng/ml", "value": 1.03}, {"measurement": "ability of recombinant RTK ligand to confer resistance", "setting": "C32, PLX4720 - 2 uM, ligand 25 ng/ml", "value": 0.91}, {"measurement": "ability of recombinant RTK ligand to confer resistance", "setting": "C32, PLX4720 - 2 uM, ligand 100 ng/ml", "value": 0.94}, {"measurement": "ability of recombinant RTK ligand to confer resistance", "setting": "Colo 829, PD184352 - 1 uM, ligand 0.4 ng/ml", "value": 0.95}, {"measurement": "ability of recombinant RTK ligand to confer resistance", "setting": "Colo 829, PD184352 - 1 uM, ligand 1.6 ng/ml", "value": 0.96}, {"measurement": "ability of recombinant RTK ligand to confer resistance", "setting": "Colo 829, PD184352 - 1 uM, ligand 6.25 ng/ml", "value": 0.96}, {"measurement": "ability of recombinant RTK ligand to confer resistance", "setting": "Colo 829, PD184352 - 1 uM, ligand 25 ng/ml", "value": 1.07}, {"measurement": "ability of recombinant RTK ligand to confer resistance", "setting": "Colo 829, PD184352 - 1 uM, ligand 100 ng/ml", "value": 0.98}, {"measurement": "ability of recombinant RTK ligand to confer resistance", "setting": "Colo 829, PLX4720 - 2 uM, ligand 0.4 ng/ml", "value": 1.00}, {"measurement": "ability of recombinant RTK ligand to confer resistance", "setting": "Colo 829, PLX4720 - 2 uM, ligand 1.6 ng/ml", "value": 1.00}, {"measurement": "ability of recombinant RTK ligand to confer resistance", "setting": "Colo 829, PLX4720 - 2 uM, ligand 6.25 ng/ml", "value": 0.96}, {"measurement": "ability of recombinant RTK ligand to confer resistance", "setting": "Colo 829, PLX4720 - 2 uM, ligand 25 ng/ml", "value": 1.09}, {"measurement": "ability of recombinant RTK ligand to confer resistance", "setting": "Colo 829, PLX4720 - 2 uM, ligand 100 ng/ml", "value": 1.00}, {"measurement": "ability of recombinant RTK ligand to confer resistance", "setting": "G-361, PD184352 - 1 uM, ligand 0.4 ng/ml", "value": 1.00}, {"measurement": "ability of recombinant RTK ligand to confer resistance", "setting": "G-361, PD184352 - 1 uM, ligand 1.6 ng/ml", "value": 0.94}, {"measurement": "ability of recombinant RTK ligand to confer resistance", "setting": "G-361, PD184352 - 1 uM, ligand 6.25 ng/ml", "value": 1.04}, {"measurement": "ability of recombinant RTK ligand to confer resistance", "setting": "G-361, PD184352 - 1 uM, ligand 25 ng/ml", "value": 0.92}, {"measurement": "ability of recombinant RTK ligand to confer resistance", "setting": "G-361, PD184352 - 1 uM, ligand 100 ng/ml", "value": 0.95}, {"measurement": "ability of recombinant RTK ligand to confer resistance", "setting": "G-361, PLX4720 - 2 uM, ligand 0.4 ng/ml", "value": 0.94}, {"measurement": "ability of recombinant RTK ligand to confer resistance", "setting": "G-361, PLX4720 - 2 uM, ligand 1.6 ng/ml", "value": 0.94}, {"measurement": "ability of recombinant RTK ligand to confer resistance", "setting": "G-361, PLX4720 - 2 uM, ligand 6.25 ng/ml", "value": 0.93}, {"measurement": "ability of recombinant RTK ligand to confer resistance", "setting": "G-361, PLX4720 - 2 uM, ligand 25 ng/ml", "value": 0.87}, {"measurement": "ability of recombinant RTK ligand to confer resistance", "setting": "G-361, PLX4720 - 2 uM, ligand 100 ng/ml", "value": 0.79}, {"measurement": "ability of recombinant RTK ligand to confer resistance", "setting": "SK-MEL-5, PD184352 - 1 uM, ligand 0.4 ng/ml", "value": 0.99}, {"measurement": "ability of recombinant RTK ligand to confer resistance", "setting": "SK-MEL-5, PD184352 - 1 uM, ligand 1.6 ng/ml", "value": 0.89}, {"measurement": "ability of recombinant RTK ligand to confer resistance", "setting": "SK-MEL-5, PD184352 - 1 uM, ligand 6.25 ng/ml", "value": 1.03}, {"measurement": "ability of recombinant RTK ligand to confer resistance", "setting": "SK-MEL-5, PD184352 - 1 uM, ligand 25 ng/ml", "value": 0.94}, {"measurement": "ability of recombinant RTK ligand to confer resistance", "setting": "SK-MEL-5, PD184352 - 1 uM, ligand 100 ng/ml", "value": 0.93}, {"measurement": "ability of recombinant RTK ligand to confer resistance", "setting": "SK-MEL-5, PLX4720 - 2 uM, ligand 0.4 ng/ml", "value": 1.04}, {"measurement": "ability of recombinant RTK ligand to confer resistance", "setting": "SK-MEL-5, PLX4720 - 2 uM, ligand 1.6 ng/ml", "value": 0.71}, {"measurement": "ability of recombinant RTK ligand to confer resistance", "setting": "SK-MEL-5, PLX4720 - 2 uM, ligand 6.25 ng/ml", "value": 1.00}, {"measurement": "ability of recombinant RTK ligand to confer resistance", "setting": "SK-MEL-5, PLX4720 - 2 uM, ligand 25 ng/ml", "value": 1.01}, {"measurement": "ability of recombinant RTK ligand to confer resistance", "setting": "SK-MEL-5, PLX4720 - 2 uM, ligand 100 ng/ml", "value": 1.08}, {"measurement": "ability of recombinant RTK ligand to confer resistance", "setting": "SK-MEL-28, PD184352 - 1 uM, ligand 0.4 ng/ml", "value": 0.99}, {"measurement": "ability of recombinant RTK ligand to confer resistance", "setting": "SK-MEL-28, PD184352 - 1 uM, ligand 1.6 ng/ml", "value": 1.03}, {"measurement": "ability of recombinant RTK ligand to confer resistance", "setting": "SK-MEL-28, PD184352 - 1 uM, ligand 6.25 ng/ml", "value": 1.02}, {"measurement": "ability of recombinant RTK ligand to confer resistance", "setting": "SK-MEL-28, PD184352 - 1 uM, ligand 25 ng/ml", "value": 0.92}, {"measurement": "ability of recombinant RTK ligand to confer resistance", "setting": "SK-MEL-28, PD184352 - 1 uM, ligand 100 ng/ml", "value": 0.96}, {"measurement": "ability of recombinant RTK ligand to confer resistance", "setting": "SK-MEL-28, PLX4720 - 2 uM, ligand 0.4 ng/ml", "value": 1.04}, {"measurement": "ability of recombinant RTK ligand to confer resistance", "setting": "SK-MEL-28, PLX4720 - 2 uM, ligand 1.6 ng/ml", "value": 0.91}, {"measurement": "ability of recombinant RTK ligand to confer resistance", "setting": "SK-MEL-28, PLX4720 - 2 uM, ligand 6.25 ng/ml", "value": 1.05}, {"measurement": "ability of recombinant RTK ligand to confer resistance", "setting": "SK-MEL-28, PLX4720 - 2 uM, ligand 25 ng/ml", "value": 0.97}, {"measurement": "ability of recombinant RTK ligand to confer resistance", "setting": "SK-MEL-28, PLX4720 - 2 uM, ligand 100 ng/ml", "value": 1.01}]}]}
